Data on two substances can be found in publication PMC8489356.

Experiment [1] concerns the target His-tagged recombinant human prosaposin (PSAP) (human) (UniProt P07602). Kind of experiment: ELISA.
Experiment [2] concerns the target His-tagged recombinant human sortilin (human) (UniProt Q99523). Nature of the experiment: ELISA.

“And” between values parts separate entries of the source, which are not always exact repeats. Equal values may be shown once.

Sequence of UniProt P07602 (P07602 17-524): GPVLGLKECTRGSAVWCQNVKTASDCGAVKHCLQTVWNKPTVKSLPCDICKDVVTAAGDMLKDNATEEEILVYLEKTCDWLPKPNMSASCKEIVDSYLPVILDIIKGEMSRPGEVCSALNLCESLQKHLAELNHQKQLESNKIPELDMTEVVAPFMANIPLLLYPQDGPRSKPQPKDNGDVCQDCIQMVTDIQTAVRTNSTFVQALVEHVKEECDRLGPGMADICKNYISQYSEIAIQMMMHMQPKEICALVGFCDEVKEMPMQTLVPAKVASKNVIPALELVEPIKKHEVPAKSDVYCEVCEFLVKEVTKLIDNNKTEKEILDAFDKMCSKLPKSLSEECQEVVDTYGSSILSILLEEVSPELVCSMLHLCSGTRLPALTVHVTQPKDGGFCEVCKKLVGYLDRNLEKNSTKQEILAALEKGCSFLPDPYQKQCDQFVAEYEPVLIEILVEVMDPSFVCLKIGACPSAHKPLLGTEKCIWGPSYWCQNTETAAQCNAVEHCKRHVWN
Sequence of UniProt Q99523 (Q99523 78-755): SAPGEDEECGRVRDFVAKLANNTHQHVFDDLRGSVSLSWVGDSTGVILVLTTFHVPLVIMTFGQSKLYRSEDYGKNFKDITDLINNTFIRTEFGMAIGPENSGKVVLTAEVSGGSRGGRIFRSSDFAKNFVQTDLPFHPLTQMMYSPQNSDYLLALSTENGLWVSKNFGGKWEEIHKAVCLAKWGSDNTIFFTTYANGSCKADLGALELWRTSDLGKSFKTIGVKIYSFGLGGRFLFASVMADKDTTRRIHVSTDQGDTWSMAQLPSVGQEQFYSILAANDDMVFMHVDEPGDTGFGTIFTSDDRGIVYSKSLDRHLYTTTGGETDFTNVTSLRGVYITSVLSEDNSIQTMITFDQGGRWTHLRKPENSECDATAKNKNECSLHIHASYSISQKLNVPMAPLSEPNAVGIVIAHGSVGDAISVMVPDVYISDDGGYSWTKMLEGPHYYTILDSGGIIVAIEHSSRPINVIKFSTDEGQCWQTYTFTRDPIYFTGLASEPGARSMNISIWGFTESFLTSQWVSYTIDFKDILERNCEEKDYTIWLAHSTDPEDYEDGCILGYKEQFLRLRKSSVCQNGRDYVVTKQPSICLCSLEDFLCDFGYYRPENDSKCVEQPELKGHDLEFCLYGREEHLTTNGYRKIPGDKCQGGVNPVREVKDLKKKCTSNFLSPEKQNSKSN

As for “Fc:PGRN (huPGRN fused to a normal Fc) (Fc fusion)”, the EC50 in experiment [1] is 1.14 nM and 3.9 nM; in experiment [2], 1.8 nM and 0.31 nM.
For the substance “protein transport vehicle:PGRN (PTV:PGRN), expressed in Expi293 cells (Fc fusion)”, the half-maximal effective concentration (EC50) was 1.74 nM and 5.1 nM in experiment [1]; 2.2 nM and 0.47 nM in experiment [2].

The term EC50 denotes the concentration needed to bring the measured effect to its halfway point.
